The values that follow come from the Immune Epitope Database (IEDB).

For orientation: pKd means −log10 of the Kd, conventionally taken in molar units. Low values mean a high Kd, high ones a low Kd.

pKd: −log10 of the molar value. A value given as a limit tells only on which side of the number the result lay.

The target of experiment [1] is HLA-A*02:03. In words: IEDB peptide-MHC binding, purified MHC/direct/fluorescence; filed as Kd, often an IC50 or EC50 that approximates it; ≥ and ≤ were set here for values at or beyond the usual limits of such assays.
For experiment [2], the target named is HLA-A*02:12. Described as above.
Experiment [3] has as its target HLA-A*02:16. The description is as above.
In experiment [4] the target is HLA-A*02:19. The experiment is described as above.
For experiment [5], the target named is HLA-A*03:01. The description is as above.
In experiment [6] the target is HLA-A*24:03. The description is as above.
In experiment [7] the target is HLA-A*02:01. In words: IEDB peptide-MHC binding, purified MHC/competitive/fluorescence; filed as Kd, often an IC50 or EC50 that approximates it; ≥ and ≤ were set here for values at or beyond the usual limits of such assays.
Experiment [8] deals with HLA-A*31:01. The description is as above.
For experiment [9], the target named is HLA-B*15:01. The experiment is described as above.
For experiment [10], the target named is HLA-B*15:17. Described as above.
Experiment [11] addresses HLA-B*15:42. The description is as above. To be noted: source organism: Zaire ebolavirus.
For experiment [12], the target named is HLA-B*18:01. The experiment is described as above.
For experiment [13], the target named is HLA-B*27:03. The experiment is described as above.
Experiment [14] addresses HLA-B*39:01. The description is as above.
The target of experiment [15] is HLA-B*45:06. The description is as above. The conditions noted are these: source organism: Zaire ebolavirus.
In experiment [16] the target is HLA-B*46:01. Described as above.
Experiment [17] addresses HLA-B*51:01. Described as above.
The target of experiment [18] is HLA-B*57:01. The description is as above.
Experiment [19] concerns the target HLA-B*83:01. The description is as above. The conditions noted are these: source organism: Zaire ebolavirus.
Experiment [20] concerns the target HLA-B*08:01. The experiment is described as above.
For experiment [21], the target named is HLA-A*03:01. Described as above. To be noted: source organism: Escherichia coli 536.
Experiment [22] concerns the target HLA-A*11:01. The experiment is described as follows: IEDB peptide-MHC binding, purified MHC/direct/fluorescence; filed as Kd, often an IC50 or EC50 that approximates it; ≥ and ≤ were set here for values at or beyond the usual limits of such assays.
Experiment [23] deals with HLA-A*02:03. The experiment is described as follows: IEDB peptide-MHC binding, purified MHC/competitive/fluorescence; filed as Kd, often an IC50 or EC50 that approximates it; ≥ and ≤ were set here for values at or beyond the usual limits of such assays. The conditions noted are these: source organism: Human immunodeficiency virus 1.
In experiment [24] the target is HLA-A*02:06. The description is as above. To be noted: source organism: Human immunodeficiency virus 1.
Experiment [25] has as its target HLA-A*02:12. The description is as above. To be noted: source organism: Human immunodeficiency virus 1.
For experiment [26], the target named is HLA-A*02:16. The experiment is described as above.
In experiment [27] the target is HLA-A*02:19. Described as above. To be noted: source organism: Human immunodeficiency virus 1.
Experiment [28] deals with HLA-A*69:01. Described as above.
In experiment [29] the target is HLA-A*02:11. The experiment is described as follows: IEDB peptide-MHC binding, purified MHC/direct/fluorescence; filed as Kd, often an IC50 or EC50 that approximates it; ≥ and ≤ were set here for values at or beyond the usual limits of such assays. The conditions noted are these: source organism: Limestone Canyon virus.
In experiment [30] the target is HLA-A*29:02. The experiment is described as above. The conditions noted are these: source organism: Limestone Canyon virus.
Experiment [31] has as its target HLA-A*68:02. The description is as above. The conditions noted are these: source organism: Limestone Canyon virus.
Experiment [32] deals with HLA-B*07:02. The experiment is described as above. The conditions noted are these: source organism: Orthohantavirus puumalaense.
Experiment [33] concerns the target HLA-A*26:01. In words: IEDB peptide-MHC binding, purified MHC/competitive/fluorescence; filed as Kd, often an IC50 or EC50 that approximates it; ≥ and ≤ were set here for values at or beyond the usual limits of such assays. To be noted: source organism: Orthohantavirus puumalaense.
The target of experiment [34] is HLA-B*35:01. The experiment is described as above. The conditions noted are these: source organism: Orthohantavirus puumalaense.
Experiment [35] addresses HLA-C*03:03. In words: IEDB peptide-MHC binding, purified MHC/direct/fluorescence; filed as Kd, often an IC50 or EC50 that approximates it; ≥ and ≤ were set here for values at or beyond the usual limits of such assays. The conditions noted are these: source organism: Mycobacterium tuberculosis C.
[36] abbreviates: source organism: Zaire ebolavirus.
The mark [37] stands for this setting: source organism: Escherichia coli.
Where [38] appears, read: source organism: Escherichia coli 536.
Where [39] appears, read: source organism: Human immunodeficiency virus 1.
Setting [40] is: source organism: Limestone Canyon virus.
The mark [41] stands for this setting: source organism: Orthohantavirus puumalaense.
Setting [42] is: source organism: Vibrio vulnificus.
Setting [43] is: source organism: Mycobacterium tuberculosis C.
Where [44] appears, read: source organism: Influenza A virus (A/Belfast/53582/2004(H3N?)).

FTFDLTALK: the pKd is ≤ 4.70 in experiment [1] (setting [36]); ≤ 4.70 in experiment [2] (setting [36]); ≤ 4.70 in [3] (setting [36]); ≤ 4.70 in experiment [4] (setting [36]); 6.64 in experiment [5] (source organism: Ebola virus - Gabon (1994-1997)); ≤ 4.70 in experiment [6] (setting [36]). Further, the pKd in experiment [7] (setting [36]) is ≤ 4.70; in experiment [8] (setting [36]), ≤ 4.70; in experiment [9] (setting [36]) it was ≤ 4.70; in experiment [10] (setting [36]), ≤ 4.70; in [11] it was ≤ 5.30; in [12] (setting [36]), ≤ 4.70. Also, the pKd in experiment [13] (setting [36]) is ≤ 4.70; in [14] (setting [36]) it was ≤ 4.70; in [15], ≤ 5.30; in experiment [16] (setting [36]), ≤ 4.70; in experiment [17] (setting [36]), ≤ 4.70; in [18] (setting [36]), ≤ 4.70. In experiment [19], the pKd is ≤ 5.30.
As to HLAGYSGVL, the negative-log Kd (pKd) in [20] (setting [37]) was 5.72; in experiment [9] (setting [37]), 6.45; in experiment [14] (setting [37]), 8.60.
For the sequence KIPATVIAR, the pKd was 7.51 in [21] and 7.46 in [8] (setting [38]).
With KTALTGAMR, the pKd was 7.82 in experiment [22] (source organism: Yellow fever virus) and 7.80 in [8] (source organism: Yellow fever virus 1899/81).
Regarding LIAVPHTKL, in experiment [20] (setting [38]), the pKd is ≤ 4.70.
Consider SLVKHHMYV, for which the pKd was 8.13 in [7] (setting [39]); 8.73 in experiment [23]; ≥ 10.00 in experiment [24]; 8.03 in experiment [25]; 9.24 in experiment [26] (setting [39]); 7.76 in experiment [27]. For the same sequence, in [28] (setting [39]), the pKd is 6.84.
Turning to SPVMGVIGF, the pKd in [1] (setting [40]), in experiment [29], in experiment [2] (setting [40]), in experiment [3] (setting [40]), in experiment [4] (setting [40]) and in [5] (setting [40]) was ≤ 4.70 throughout. For the same sequence, the negative logarithm of the Kd (pKd) is ≤ 4.70 in [6] (setting [40]); ≤ 4.70 in [30]; ≤ 4.70 in experiment [31]; 7.22 in experiment [32]; ≤ 4.70 in experiment [7] (setting [41]); ≤ 4.70 in experiment [33]. The pKd was ≤ 4.70 in [28] (setting [41]); ≤ 4.70 in experiment [9] (setting [41]); ≤ 4.70 in [10] (setting [41]); ≤ 4.70 in experiment [12] (setting [41]); ≤ 4.70 in experiment [13] (setting [41]); 9.30 in [34]. The pKd in experiment [14] (setting [41]), in experiment [16] (setting [41]), in experiment [17] (setting [41]) and in [18] (setting [41]) was ≤ 4.70 in each case.
In the case of SSGVFHSYK, the pKd in experiment [5] (setting [42]) is 8.01; in experiment [22] (setting [42]), ≥ 9.00; in experiment [8] (source organism: Vibrio vulnificus YJ016), 8.46.
Consider TMDPSVRVL, for which the pKd is 7.52 in experiment [35], 7.38 in experiment [7] (setting [43]) and 6.66 in [26] (setting [43]).
Regarding VVYKTGAIR, the pKd in [5] (source organism: Mycobacterium leprae) is 6.12; in experiment [8] (setting [43]) it was 7.23.
With WILDRLFFK, the pKd was 7.28 in experiment [5] (setting [44]), 8.68 in experiment [22] (setting [44]) and 6.61 in [8] (source organism: Influenza A virus (A/Memphis/1/1978(H1N1))).
